Measurements reported in patent US20230414780A1 (VECT HORUS, published 2023).

Key:
[1] = biological target: T1, mouse transferrin receptor (mTfR) fused to EGFP, on CHO cells (mouse, UniProt Q62351 1-763); assay: flow cytometry, CHO cells
T1 construct: whole, on cells; also called mouse TfR; CHO-mTfR-EGFP; not shown: EGFP
Procedure: The binding properties of VHHs with affinity for the TfR from different species (i.e., human (h), mouse (m) and rhesus monkey (rh)) were tested using flow cytometry, and apparent affinities (Kd app) were determined. All experiments were performed in 96 well plates using 2×10⁵ cells/well, at 4° C. with shaking. CHO cell lines expressing the hTfR, mTfR or rhTfR fused to EGFP were saturated with PBS/BSA 2% solution during 30 min to avoid nonspecific binding, followed by incubation with purified VHHs at increasing concentrations for 1 hr. After one wash in PBS/BSA 2%, cells were incubated for 1 hr with an anti-6His tag antibody (mouse), washed twice with PBS/BSA 2%, and incubated for 1 hr with an Alexa647-conjugated anti-mouse secondary antibody. After two last washes in PBS/BSA 2%, cells were fixed by incubation for 15 min with PBS/PFA 2%, washed once with PBS and finally resuspended in PBS. Fluorescence levels were assessed using an Attune NxT flow cytometer (Thermo Fisher Scientific). Experimental data were fitted with GraphPad Prism® software using a nonlinear fit to determine the apparent Kd constants. […] Table 5 hereafter summarizes apparent Kd obtained for the tested VHHs.

[2] = biological target: T2, human transferrin receptor (hTfR) fused to EGFP, on CHO cells (human, UniProt P02786 1-760); assay: apparent Kd, flow cytometry, CHO cells
T2 construct: whole, on cells; also called human TfR; CHO-hTfR-EGFP; not shown: EGFP from pEGFP-C1 vector, fused to the N-terminal (intracellular) end of hTfR
Procedure, shortened: (§1)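 CHO cells expressing TfR-EGFP fusions, blocked in PBS/BSA 2%, then incubated with increasing VHH concentrations for 1 hr at 4° C. Bound VHH detected via anti-6His antibody and Alexa647 secondary, cells PFA-fixed, read by flow cytometry. Apparent Kd from nonlinear fit.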

[3] = biological target: T3, human TfR ectodomain fused to a mouse IgG1 Fc fragment (human, UniProt P02786 89-760); assay: SPR, kinetic
T3 construct: extracellular domain; ectodomain fused to the N-terminal end of the Fc, made in-house; not shown: mouse IgG1 Fc fragment
Procedure: (§2) Binding properties of some VHHs were also evaluated using Surface Plasmon Resonance (SPR) experiments. The human, mouse and rhesus monkey TfR (having respectively GeneBank number NM_003234.2, NM_011638, NC_041755.1) ectodomains were fused to the N-terminal end of a mouse IgG1 Fc fragment and the recombinant proteins were produced and purified in-house. Interaction of VHHs with the receptors was tested using a Biacore T200 (GE Healthcare). Receptors were immobilized on an HC 1500M or a CM5 sensor chip (Xantec) either directly or on an anti-mouse IgG previously immobilized. VHHs were injected over flowcell by using the single-cycle kinetic or the multiple-cycle kinetic methods.

[4] = biological target: T4, rhesus monkey TfR ectodomain fused to a mouse IgG1 Fc fragment (rhesus monkey, UniProt I0FKY7 89-760); assay: SPR, kinetic
T4 construct: extracellular domain; not shown: mouse IgG1 Fc fragment
Procedure: as §2

[5] = biological target: T3, human TfR ectodomain fused to a mouse …; assay: SPR, at equilibrium
Procedure: as §2

[6] = biological target: T4, rhesus monkey TfR ectodomain fused to a …; assay: SPR, at equilibrium
Procedure: as §2

[7] = biological target: T1, mouse transferrin receptor (mTfR) fused …; assay: apparent Kd, flow cytometry, CHO cells
Procedure, shortened: as §1

[8] = biological target: T5, rhesus monkey transferrin receptor (rhTfR) fused to EGFP, on CHO cells (rhesus monkey); assay: apparent Kd, flow cytometry, CHO cells
T5 construct: whole, on cells; also called rhesus monkey TfR
Procedure, shortened: as §1

T3 sequence (P02786 89-760): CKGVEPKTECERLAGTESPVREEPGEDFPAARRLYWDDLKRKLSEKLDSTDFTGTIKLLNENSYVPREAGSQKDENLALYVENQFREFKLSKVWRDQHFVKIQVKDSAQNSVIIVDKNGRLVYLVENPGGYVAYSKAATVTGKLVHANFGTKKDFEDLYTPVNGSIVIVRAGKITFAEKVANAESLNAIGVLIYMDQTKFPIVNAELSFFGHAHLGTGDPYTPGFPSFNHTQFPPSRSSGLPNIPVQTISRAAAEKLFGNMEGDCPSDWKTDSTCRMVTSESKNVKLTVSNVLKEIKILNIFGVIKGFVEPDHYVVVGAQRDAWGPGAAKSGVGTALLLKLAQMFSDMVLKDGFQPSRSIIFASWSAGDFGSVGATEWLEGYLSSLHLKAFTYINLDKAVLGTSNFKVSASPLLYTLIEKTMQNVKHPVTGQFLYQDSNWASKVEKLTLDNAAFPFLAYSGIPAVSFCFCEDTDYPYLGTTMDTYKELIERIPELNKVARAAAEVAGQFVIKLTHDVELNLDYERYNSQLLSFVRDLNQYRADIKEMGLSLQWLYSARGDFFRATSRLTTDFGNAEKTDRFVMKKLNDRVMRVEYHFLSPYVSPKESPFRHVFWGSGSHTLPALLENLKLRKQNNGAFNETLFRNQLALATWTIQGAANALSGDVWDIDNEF
T2 sequence (P02786 whole entry, the tested form may be a part): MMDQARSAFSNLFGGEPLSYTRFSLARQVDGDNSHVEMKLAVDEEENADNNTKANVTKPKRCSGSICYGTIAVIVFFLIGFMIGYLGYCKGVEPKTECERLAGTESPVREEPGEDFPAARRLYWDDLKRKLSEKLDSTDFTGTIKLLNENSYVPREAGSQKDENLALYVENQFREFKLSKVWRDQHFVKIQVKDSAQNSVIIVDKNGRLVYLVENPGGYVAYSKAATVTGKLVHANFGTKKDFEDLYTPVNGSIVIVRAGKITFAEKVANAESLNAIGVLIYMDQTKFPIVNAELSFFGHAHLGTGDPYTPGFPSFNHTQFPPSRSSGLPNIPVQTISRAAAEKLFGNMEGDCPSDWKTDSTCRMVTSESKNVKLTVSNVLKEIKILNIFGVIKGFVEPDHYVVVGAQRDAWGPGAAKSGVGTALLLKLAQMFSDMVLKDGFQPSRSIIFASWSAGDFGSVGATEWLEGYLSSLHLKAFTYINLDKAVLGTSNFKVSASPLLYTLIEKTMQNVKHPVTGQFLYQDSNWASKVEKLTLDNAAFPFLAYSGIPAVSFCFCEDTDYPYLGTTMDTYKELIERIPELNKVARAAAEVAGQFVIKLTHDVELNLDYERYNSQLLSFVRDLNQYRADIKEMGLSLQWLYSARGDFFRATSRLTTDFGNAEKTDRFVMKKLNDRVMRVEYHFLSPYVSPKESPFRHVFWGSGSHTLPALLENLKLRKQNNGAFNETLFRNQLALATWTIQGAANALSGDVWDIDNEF
T1 sequence (Q62351 whole entry, the tested form may be a part): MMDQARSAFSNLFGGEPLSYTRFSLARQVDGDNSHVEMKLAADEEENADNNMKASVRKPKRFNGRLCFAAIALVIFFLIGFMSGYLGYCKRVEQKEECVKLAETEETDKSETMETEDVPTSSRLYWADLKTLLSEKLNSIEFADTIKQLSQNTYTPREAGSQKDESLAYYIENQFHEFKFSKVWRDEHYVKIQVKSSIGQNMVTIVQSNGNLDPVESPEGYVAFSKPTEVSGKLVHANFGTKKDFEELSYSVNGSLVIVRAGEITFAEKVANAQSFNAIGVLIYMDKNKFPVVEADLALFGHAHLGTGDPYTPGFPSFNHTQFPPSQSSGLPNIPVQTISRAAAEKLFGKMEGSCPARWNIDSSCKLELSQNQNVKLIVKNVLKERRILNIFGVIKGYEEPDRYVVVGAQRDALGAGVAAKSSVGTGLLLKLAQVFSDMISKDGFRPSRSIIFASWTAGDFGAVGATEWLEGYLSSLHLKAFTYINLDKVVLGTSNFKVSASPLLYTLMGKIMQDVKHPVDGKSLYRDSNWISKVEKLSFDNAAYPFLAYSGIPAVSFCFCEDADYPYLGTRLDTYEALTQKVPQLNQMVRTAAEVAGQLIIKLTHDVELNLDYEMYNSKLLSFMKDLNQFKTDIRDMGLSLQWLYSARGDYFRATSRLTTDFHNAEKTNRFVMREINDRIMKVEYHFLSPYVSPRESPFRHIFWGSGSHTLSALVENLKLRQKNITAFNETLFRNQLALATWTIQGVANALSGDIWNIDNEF

Row | Binder | binding result [1] | Kd [2] [nM] | Kd [3] [nM] | koff [3] [s⁻¹] | kon [3] [M⁻¹ s⁻¹] | Kd [4] [nM] | koff [4] [s⁻¹] | kon [4] [M⁻¹ s⁻¹] | Kd [5] [nM] | Kd [6] [nM] | Kd [7] [nM] | Kd [8] [nM]
1 | E2 (VHH) VHH: QVQLVQSGGGLVQAGGSLRLSCAASGSIFSDITLAWHRQIPGKEREWVAGISRSGSPSYRDSVKGRFTISRDNAKNTVFLQMNSLEPEDTGVYYCYSRGYWGQGTQVTVSS | no binding | 2.5 |  |  |  |  |  |  |  |  |  | 
2 | C5^neg (control) (VHH, negative control of C5 with 2 alanines in CDR3) VHH: EVQLVESGGGVVQPGGSLKLSCVASGTDFSINFIRWYRQAPGKQREFVAGFTATGNTNYADSMKGRFTISRDNTKNAVYLQIDSLKPEDTAVYYCAMADKWGQGTQVTVSS | no binding |  |  |  |  |  |  |  |  |  |  | 
3 | B6^V4 (VHH) VHH: EVQLVESGGGLVQPGGSLRLSCTASGGPIEQYPMGWFRRAPGKERESVASISRSGDGTYYAISSVKGRFTISRDNAENTVFLQMNSLKPDDTAVYYCGAGINPTKIWGQGTQVTVSS | no binding | 5.9 |  |  |  |  |  |  |  |  |  | 
4 | B8^V24 (VHH) VHH: EVQLVESGGGVVQPGGSLRLSCAASGEIFSINFMEWYRQAPGKQREWVAGFTRDGSTNYPDSAKGRFTISRDNAKNTVYLQIDSLKPEDTAVYYCYMLDTWGQGTQVTVSS | no binding | 1010 |  |  |  |  |  |  |  |  |  | 
5 | B8^V40 (VHH) VHH: EVQLVESGGGVVQPGGSLRLSCAASGEIKSINFMRWYRQAPGKQREWVSGFTRDGSTNYPDSAKGRFTISRDNAKNTVYLQIDSLKPEDTAVYYCYMLDTWGQGTQVTVSS |  | 42 | 42.1 | 0.0283 | 672000 | 34.8 | 0.02 | 575000 | 42.5 | 39.8 | 1580 | 69
6 | B8^V38 (VHH) VHH: EVQLVESGGGVVQPGGSLRLSCAASGEIRSINFMRWYRQAPGKQREWVAGFTRTGSTNYPDSAKGRFTISRDNAKNTVYLQIDSLKPEDTAVYYCYMLDTWGQGTQVTVSS |  | 23 | 32.2 | 0.0192 | 596000 | 46.3 | 0.0255 | 549000 | 35.8 | 55.4 | 1780 | 123
7 | B8^V34 (VHH) VHH: EVQLVESGGGVVQPGGSLRLSCAASGEIRSINFMRWYRQAPGKQREWVAGFTRDGSTNYPDIAKGRFTISRDNAKNTVYLQIDSLKPEDTAVYYCYMLDTWGQGTQVTVSS |  | 13 | 33.3 | 0.0244 | 733000 | 51.5 | 0.102 | 1.97e+06 | 32.4 | 49.4 | 1070 | 68

The remaining lines, values ahead:

Row | binding result [1] | Kd [2] [nM] | Kd [3] [nM] | koff [3] [s⁻¹] | kon [3] [M⁻¹ s⁻¹] | Kd [4] [nM] | koff [4] [s⁻¹] | kon [4] [M⁻¹ s⁻¹] | Kd [5] [nM] | Kd [6] [nM] | Kd [7] [nM] | Kd [8] [nM] | Binder
8 | no binding |  | 1.3 | 0.00147 | 1.13e+06 |  |  |  |  |  |  |  | H7 (VHH) VHH: EVQLVESGGGLVQAGGSLRLSCTASGRPISDYPMGWFRRAPGKDRELVASISRTGDGTYYANSMKERFTISRDNAQNTVSLQISSLKPEDTAVYYCGAGINPTRYWGQGTQVTVSS
9 | no binding | 2.3 |  |  |  |  |  |  |  |  |  |  | B6^V1 (VHH) VHH: EVQLVESGGGLVQPGGSLRLSCTASGGPIEQYPMGWFRRAPGKERNLVASISRSGDGTYYAISSVKGRFTISRDNAENTVFLQMNSLKPDDTAVYYCGAGINPTKIWGQGTQVTVSS
10 | no binding | 643 |  |  |  |  |  |  |  |  |  |  | B6^V2 (VHH) VHH: EVQLVESGGGLVQPGGSLRLSCTASGGPIEQYPMGWFRRAPGKERELVASFSRSGDGTYYAISSVKGRFTISRDNAENTVFLQMNSLKPDDTAVYYCGAGINPTKIWGQGTQVTVSS
11 | no binding | 2.6 |  |  |  |  |  |  |  |  |  |  | B6^V3 (VHH) VHH: EVQLVESGGGLVQPGGSLRLSCTASGGPIEQYPMGWFRRAPGKERELVASSSRSGDGTYYAISSVKGRFTISRDNAENTVFLQMNSLKPDDTAVYYCGAGINPTKIWGQGTQVTVSS
12 |  | 14 | 60.8 | 0.0221 | 364000 | 32.1 | 0.0509 | 1.59e+06 | 63.8 | 35.4 | 1690 | 20 | B8^V31 (VHH) VHH: EVQLVESGGGVVQPGGSLRLSCAASGEIKSINFMRWYRQAPGKQREWVAGFTRDGSTNYPDSAKGRFTISRDNAKNTVYLQIDSLKPEDTAVYYCYMLDTWGQGTQVTVSS
13 |  | 16 | 39.1 | 0.0175 | 448000 | 90.5 | 0.0327 | 362000 | 40.3 | 93.3 | 1290 | 200 | B8^V39 (VHH) VHH: EVQLVESGGGVVQPGGSLRLSCAASGEIFKINFMRWYRQAPGKQREWVAGFTRDGSTNYPDSAKGRFTISRDNAKNTVYLQIDSLKPEDTAVYYCYMLDTWGQGTQVTVSS
14 |  | 7.1 | 20.6 | 0.0143 | 698000 | 33.7 | 0.0303 | 898000 | 23.9 | 34.4 | 513 | 23 | B8^V35 (VHH) VHH: EVQLVESGGGVVQPGGSLRLSCAASGEIRSINFMRWYRQAPGKQREWVAGFTRDGSLNYPDSAKGRFTISRDNAKNTVYLQIDSLKPEDTAVYYCYMLDTWGKGTQVTVSS
15 |  | 7.1 | 30.1 | 0.0126 | 420000 | 32.7 | 0.0418 | 1.28e+06 | 36.5 | 35.1 | 1210 | 14 | B8^V32 (VHH) VHH: EVQLVESGGGVVQPGGSLRLSCAASGEIRSINFMRWYRQAPGKQREWVAGFTRDGSTNYPDSAKGRFTISRDNAKNTVYLQIDSLKPEDTAVYYCYMLDTWGQGTQVTVSS
16 |  | 50 | 46.2 | 0.0328 | 710000 | 73.4 | 0.0509 | 693000 | 46.5 | 86 | 230 | 170 | B8^V33 (VHH) VHH: EVQLVESGGGVVQPGGSLRLSCAASGEIFSINFMRWYRQAPGKQREWVAGFTRDGSTNYPDSAKGRFTISRDNAKNTVYLQIDSLKPEDTAVYYCYMLKTWGQGTQVTVSS
17 |  | 97 | 70.5 | 0.0493 | 699000 | 148 | 0.103 | 700000 | 75.5 | 175 | 582 | 334 | B8^V37 (VHH) VHH: EVQLVESGGGVVQPGGSLRLSCAASGEIFSINFMRWYRQAPGKQREWVAGFTRDGSTNYPDSAKGRFTISEDNAKNTVYLQIDSLKPEDTAVYYCYMLRTWGQGTQVTVSS
